Where a SMILES comes first, the peptide text is derived from it. Where no end group is shown, it is not given here.
Columns and labels:
[1] = In vitro stability in FBS (RCP by ITLC); type: in vitro ADME, bovine; conditions: 37 °C, 0-6 h
Experimental: The [^99mTc]Tc-labeled PTP was characterized using an Agilent 1260 HPLC system (Agilent Technologies, Santa Clara, CA, USA) equipped with a UV-vis detector (λ = 220 nm) and a radioactive flow detector (BioScan, Poway, CA, USA). A SunFire C18 column (5 µm, 4.6 × 250 mm, Waters, Japan) was used at a 1 mL/min flow rate with the following gradient method: 0.1% trifluoroacetic acid in H2O and CH3CN (0–20 min, 15–45% CH3CN). The RCP of [^99mTc]Tc-HYNIC-PTP was determined by radio-HPLC and could also be rapidly analyzed by ITLC in a system consisting of silica gel 60 F254 TLC plates (Merck, Germany) and 50% acetonitrile as mobile phase. To assess the stability in vitro, the formed [^99mTc]Tc-HYNIC-PTP (500 μL, 1 mCi) was mixed with 500 μL of PBS (0.1 M, pH = 7.4) and 500 µL of cysteine solution (100-fold molar excess over the PTP) at room temperature, and 500 µL of FBS at 37 °C. The RCPs were tested by ITLC at different time intervals (0–6 h).

healthy ICR mice = assay: Pharmacokinetics in blood; type: in vivo; conditions: for radioactivity in blood: i.v. 20 µCi
Experimental: The pharmacokinetic profile of [^99mTc]Tc-HYNIC-PTP was investigated in healthy ICR mice. The mice were randomly divided into nine groups (n = 3), and each mouse was intravenously injected with [^99mTc]Tc-HYNIC-PTP at a dose of 20 µCi in a 200 µL solution. One hundred microliters of blood from each mouse was immediately collected and weighed at designated times (1, 2, 5, 15, 30, 60, 120, 240, and 360 min), and radioactivity was measured using a γ-counter (CAPINTEC, USA) to calculate the percent uptake of the injected dose per gram (%ID/g). In addition, the pharmacokinetic data were analyzed by DAS 2.0 (Shanghai, China) using a two-compartment model to calculate the half-life of [^99mTc]Tc-HYNIC-PTP in the blood.

[2] = tested on: tumor-bearing mice (U87, C6, A549, 4T1, and BxPC-3); assay: SPECT imaging in vivo; conditions: i.v. 200 µL of 10 mCi/mL, 0.5-4 h
Experimental: The feasibility of [^99mTc]Tc-HYNIC-PTP as a SPECT probe for tumor imaging was examined using established subcutaneous tumor models. Briefly, [^99mTc]Tc-HYNIC-PTP solution (200 µL, [^99mTc]Tc = 10 mCi/mL, corresponding to 2 µg of HYNIC-PTP) was intravenously injected into tumor-bearing mice. SPECT images were acquired 0.5, 1, 2, and 4 h after injection using a SPECT imaging system equipped with a Xeleris 2.0 workstation and low-energy general-purpose collimators (Infinia, Denver, CO, USA). After SPECT imaging, the tumors and muscle tissues were excised to confirm plectin expression levels by immunohistochemistry. Briefly, excised specimens were fixed in formalin and embedded in paraffin. The sections (5 μm) were subjected to heat treatment in a citrate solution for antigen retrieval and blocking with 3% bovine serum albumin for 30 min. Then the sections were incubated with anti-plectin primary antibody (1:200) overnight at 4 °C. After incubation with secondary antibody (K5007, DAKO, Carpinteria, CA, USA) at room temperature for 50 min, the slides were treated with 1:100 DAB (K5007, DAKO, USA) and counterstained with hematoxylin. At least three sections of each specimen were chosen, and 5–10 high-power visual fields were randomly selected to calculate the positive area of staining. The average areas were then used to plot histograms.

CCK-8 cytotoxicity assay = type: cell-based; conditions: C6 and BEAS-2B cells, PTP 0-200 µg/mL, CCK-8, absorbance 450 nm, BxPC-3, C6, BEAS-2B cells (Figure S1), read-out: cell viability
Experimental: CCK-8 assays were used to assess the potential cytotoxic effects of PTP on normal and tumor cell lines. Briefly, taking BxPC-3 cells as an example, the cells were seeded into 96-well plates at a density of 1 × 10^4 per well with RPMI-1640 medium and 10% FBS. After 24 h, the medium was replaced with 100 µL of fresh medium containing different concentrations of PTP (0–200 µg/mL) for another 24 h. Next, 10 µL of CCK-8 solution was added, and the cells were subsequently cultured for 1.5 h. Absorbance at 450 nm was measured using a Varioskan Flash multimode microplate reader (Thermo Fisher Scientific, Waltham, MA, USA). The cytocompatibility of PTP was also assessed in C6 and BEAS-2B cells using the same method.

BALB/c nude mice = assay: Preliminary toxicity study in vivo
Experimental: To assess the preliminary safety in vivo, five BALB/c nude mice were treated with PTP at a single dose (1 mg, 100 µL), and another five mice treated with saline were used as the control group. The body weight, physical activity, and death of each mouse were recorded during the following seven days. The major organs of the mice, including the heart, liver, spleen, lung, and kidneys, were harvested for histological examination.

[3] = blood, two-compartment model, DAS 2.0

## CC(C)C[C@H](NC(=O)[C@@H](NC(=O)[C@H](CCCCN)NC(=O)c1ccc(NN)nc1)[C@@H](C)O)C(=O)N[C@@H](CC(C)C)C(=O)N1CCC[C@H]1C(=O)N[C@H](C(=O)N1CCC[C@H]1C(=O)O)[C@@H](C)O [[^99mTc]Tc-HYNIC-PTP, metal not drawn] (HELM PEPTIDE1{[NNc1ccc(C(=O)[*:2])cn1].K.T.L.L.P.T.P}$$$$V2.0)
[1]
  change of RCP in FBS: no evident changes in RCPs
Healthy ICR mice; 1 min post-injection, n = 3, γ-counter
  radioactivity in blood: 14.52 %ID/g
Healthy ICR mice; 30 min post-injection, n = 3
  radioactivity in blood: 1.35 %ID/g
Healthy ICR mice; 360 min post-injection, n = 3
  radioactivity in blood: Less than 0.01 %ID/g
Healthy ICR mice; [3]
  clear-phase half-life (t1/2 beta): 9.17 min
  distribution-phase half-life (t1/2 alpha): 0.88 min
[2]
  route of clearance: predominantly cleared through the urinary system

## KTLLPTP [PTP]
CCK-8 cytotoxicity assay
  viability at 24 h: > 90%
BALB/c nude mice; single dose 1 mg in 100 µL, five mice, seven days, vs saline
  death of mice: None of the mice died
BALB/c nude mice; single dose 1 mg in 100 µL, within seven days, vs saline group
  body weight and physical activity: no significant difference
BALB/c nude mice; single dose 1 mg, vs saline group (Figure S2)
  H&E staining of main organs (heart, liver, lung, spleen, kidneys): no significant difference in tissue damage, necrotic areas, or abnormalities
